From IntAct's records for PubMed 16778766 come the findings set out here.

B1: Estrogen receptor (Mus musculus), P19785 (parent)
chain: MTMTLHTKASGMALLHQIQGNELEPLNRPQLKMPMERALGEVYVDNSKPTVFNYPEGAAYEFNAAAAAAAAASAPVYGQSGIAYGPGSEAAAFSANSLGAFPQLNSVSPSPLMLLHPPPQLSPFLHPHGQQVPYYLENEPSAYAVRDTGPPAFYRSNSDNRRQNGRERLSSSNEKGNMIMESAKETRYCAVCNDYASGYHYGVWSCEGCKAFFKRSIQGHNDYMCPATNQCTIDKNRRKSCQACRLRKCYEVGMMKGGIRKDRRGGRMLKHKRQRDDLEGRNEMGASGDMRAANLWPSPLVIKHTKKNSPALSLTADQMVSALLDAEPPMIYSEYDPSRPFSEASMMGLLTNLADRELVHMINWAKRVPGFGDLNLHDQVHLLECAWLEILMIGLVWRSMEHPGKLLFAPNLLLDRNQGKCVEGMVEIFDMLLATSSRFRMMNLQGEEFVCLKSIILLNSGVYTFLSSTLKSLEEKDHIHRVLDKITDTLIHLMAKAGLTLQQQHRRLAQLLLILSHIRHMSNKGMEHLYNMKCKNVVPLYDLLLEMLDAHRLHAPASRMGVPPEEPSQTQLATTSSTSAHSLQTYYIPPEAEGFPNTI

Variants of B1 are the subject of the assay. Particulars: with cnot1_human CNOT1, A5YKK6.
Chain of cnot1_human CNOT1, A5YKK6 (A5YKK6 whole entry): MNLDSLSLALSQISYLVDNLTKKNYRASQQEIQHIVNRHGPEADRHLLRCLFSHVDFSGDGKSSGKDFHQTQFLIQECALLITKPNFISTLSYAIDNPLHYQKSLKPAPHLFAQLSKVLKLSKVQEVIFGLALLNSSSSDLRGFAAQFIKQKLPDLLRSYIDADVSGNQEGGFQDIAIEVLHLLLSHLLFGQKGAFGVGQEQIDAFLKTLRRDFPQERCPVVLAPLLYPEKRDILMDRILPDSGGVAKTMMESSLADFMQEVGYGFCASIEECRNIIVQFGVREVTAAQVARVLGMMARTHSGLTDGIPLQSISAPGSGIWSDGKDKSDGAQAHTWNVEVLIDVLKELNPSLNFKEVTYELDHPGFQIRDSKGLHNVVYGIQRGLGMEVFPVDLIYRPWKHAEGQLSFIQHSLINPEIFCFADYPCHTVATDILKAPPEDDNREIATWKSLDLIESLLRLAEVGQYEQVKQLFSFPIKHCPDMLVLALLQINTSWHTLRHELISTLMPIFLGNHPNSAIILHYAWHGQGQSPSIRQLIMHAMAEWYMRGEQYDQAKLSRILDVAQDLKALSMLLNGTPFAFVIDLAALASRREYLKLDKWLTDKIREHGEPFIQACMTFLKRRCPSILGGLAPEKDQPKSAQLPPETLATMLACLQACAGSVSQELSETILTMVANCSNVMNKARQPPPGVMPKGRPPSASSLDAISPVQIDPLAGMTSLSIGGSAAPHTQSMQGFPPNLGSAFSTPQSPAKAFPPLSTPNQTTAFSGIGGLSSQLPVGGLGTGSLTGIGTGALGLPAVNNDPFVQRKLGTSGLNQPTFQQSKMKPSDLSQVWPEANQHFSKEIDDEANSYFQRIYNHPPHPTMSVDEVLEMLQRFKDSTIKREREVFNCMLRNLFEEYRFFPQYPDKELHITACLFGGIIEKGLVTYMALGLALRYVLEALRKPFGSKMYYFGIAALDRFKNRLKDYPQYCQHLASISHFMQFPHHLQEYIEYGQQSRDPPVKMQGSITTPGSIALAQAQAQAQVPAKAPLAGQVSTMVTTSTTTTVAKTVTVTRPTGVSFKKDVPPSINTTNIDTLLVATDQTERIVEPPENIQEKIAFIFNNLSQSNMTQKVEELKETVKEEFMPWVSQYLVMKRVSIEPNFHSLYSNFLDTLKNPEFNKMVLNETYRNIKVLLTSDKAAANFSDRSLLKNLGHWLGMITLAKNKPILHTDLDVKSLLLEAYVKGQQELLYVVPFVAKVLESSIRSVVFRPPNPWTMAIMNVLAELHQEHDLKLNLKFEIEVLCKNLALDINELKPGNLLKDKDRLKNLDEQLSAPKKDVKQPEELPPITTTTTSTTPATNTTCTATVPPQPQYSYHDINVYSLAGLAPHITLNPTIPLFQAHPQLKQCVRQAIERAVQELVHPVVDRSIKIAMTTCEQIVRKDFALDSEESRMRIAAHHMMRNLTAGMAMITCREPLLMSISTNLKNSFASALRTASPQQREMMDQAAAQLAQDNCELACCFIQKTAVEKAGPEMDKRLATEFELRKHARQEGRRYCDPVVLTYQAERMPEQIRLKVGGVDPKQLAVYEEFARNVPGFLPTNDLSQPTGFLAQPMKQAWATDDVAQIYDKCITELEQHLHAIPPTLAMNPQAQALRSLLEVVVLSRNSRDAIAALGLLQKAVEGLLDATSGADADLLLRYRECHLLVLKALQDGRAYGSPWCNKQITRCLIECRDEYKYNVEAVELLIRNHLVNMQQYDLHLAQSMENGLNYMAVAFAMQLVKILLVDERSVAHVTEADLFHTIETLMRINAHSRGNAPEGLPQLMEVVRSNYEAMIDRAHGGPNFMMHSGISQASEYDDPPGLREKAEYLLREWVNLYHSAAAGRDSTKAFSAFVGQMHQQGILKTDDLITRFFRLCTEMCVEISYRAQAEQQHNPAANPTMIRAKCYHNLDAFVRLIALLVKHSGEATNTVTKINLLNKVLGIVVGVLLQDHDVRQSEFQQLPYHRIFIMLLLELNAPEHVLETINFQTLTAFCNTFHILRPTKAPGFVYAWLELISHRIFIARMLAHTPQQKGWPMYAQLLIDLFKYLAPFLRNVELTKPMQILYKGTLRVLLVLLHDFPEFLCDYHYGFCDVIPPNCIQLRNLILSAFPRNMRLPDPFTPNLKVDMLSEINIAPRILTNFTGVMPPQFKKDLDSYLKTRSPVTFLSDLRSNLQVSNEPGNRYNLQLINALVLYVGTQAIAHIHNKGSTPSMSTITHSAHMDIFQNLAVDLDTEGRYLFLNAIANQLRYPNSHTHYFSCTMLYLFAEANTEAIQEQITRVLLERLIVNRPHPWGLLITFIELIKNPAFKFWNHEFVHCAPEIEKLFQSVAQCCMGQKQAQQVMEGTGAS
In the case of L548A, the “effect of a mutation on the interaction” value is on record as “disrupting interaction”.
The result for M547A reads “disrupting interaction”.
